{"source": "patent US20210269539A1", "about": "(NANJING UMAB BIOPHARMA, published 2021)", "binders": {"B1": {"name": "MT01-C1 (antibody, human IgG1, kappa)", "heavy": "not shown", "light": "DIQMTQSPSSVSASVGDRVTITCRASQDISNYLSWYQQKPGGAVKLLIYYTSRLHSGVPSRFSGSGSGTDYTLTISSLQPEDFATYFCQQGITLPWTFGQGTKVEIKRTVAAPSVFIFPPSDEQLKSGTASVVCLLNNFYPREAKVQWKVDNALQSGNSQESVTEQDSKDSTYSLSSTLTLSKADYEKHKVYACEVTHQGLSSPVTKSFNRGEC", "notes": "also called humanized monoclonal antibody MT01-C1"}, "B2": {"name": "MT01-C1(G2) (antibody, human IgG2, kappa)", "heavy": "EVQLVQSGAEVKKPGESLKISCKASGYTFTSYVMHWLRQMPGKGLEWMGYINPYNDGTKYNEKFKGQVTISSDKSISTAYLQWSSLKASDTAMYYCANYYGSKFAMDYWGQGTMVTVSSASTKGPSVFPLAPCSRSTSESTAALGCLVKDYFPEPVTVSWNSGALTSGVHTFPAVLQSSGLYSLSSVVTVPSSNFGTQTYTCNVDHKPSNTKVDKTVERKCCVECPPCPAPPVAGPSVFLFPPKPKDTLMISRTPEVTCVVVDVSHEDPEVQFNWYVDGVEVHNAKTKPREEQFNSTFRVVSVLTVVHQDWLNGKEYKCKVSNKGLPAPIEKTISKTKGQPREPQVYTLPPSREEMTKNQVSLTCLVKGFYPSDIAVEWESNGQPENNYKTTPPMLDSDGSFFLYSKLTVDKSRWQQGNVFSCSVMHEALHNHYTQKSLSLSPGK", "light": "B1 light"}, "B3": {"name": "MT01-L1(M1) (antibody, human IgG1, kappa, V domains shown)", "VH": "EVQLQQSGPELVKPGASVKMSCKASGYTFTSYVMHWLKQKPGQGLEWIGYINPYNDATKYNEKFKGKAKLTSDKSSSTAYMELSSLTSEDSAVYYCANYYGSKFAMDYWGQGTSVTVSS", "VL": "DIQMTQTTSSLSASLGDRVTISCRASQDISNYLSWYQRKPDGAVKLLIYYTSRLHSGVPSRFSGSGSGADYSLTISNLEQEDIATYFCQQGITLPWTFGGGTKLEIKR"}, "B4": {"name": "MT01-L1(M1/M2) (antibody, human IgG1, kappa, V domains shown)", "VH": "B3 VH", "VL": "B3 VL with W96F"}, "B5": {"name": "MT01-L1(M2) (antibody, human IgG1, kappa, V domains shown)", "VH": "B3 VH with A57G", "VL": "B3 VL with W96F"}, "B6": {"name": "MT01-L1 (antibody, human IgG1, kappa)", "heavy": "not shown", "light": "DIQMTQTTSSLSASLGDRVTISCRASQDISNYLSWYQRKPDGAVKLLIYYTSRLHSGVPSRFSGSGSGADYSLTISNLEQEDIATYFCQQGITLPWTFGGGTKLEIKRTVAAPSVFIFPPSDEQLKSGTASVVCLLNNFYPREAKVQWKVDNALQSGNSQESVTEQDSKDSTYSLSSTLTLSKADYEKHKVYACEVTHQGLSSPVTKSFNRGEC", "notes": "also called human-mouse chimeric monoclonal antibody MT01-L1"}, "B7": {"name": "MT01-L1(G2) (antibody, human IgG2, kappa)", "heavy": "EVQLQQSGPELVKPGASVKMSCKASGYTFTSYVMHWLKQKPGQGLEWIGYINPYNDGTKYNEKFKGKAKLTSDKSSSTAYMELSSLTSEDSAVYYCANYYGSKFAMDYWGQGTSVTVSSASTKGPSVFPLAPCSRSTSESTAALGCLVKDYFPEPVTVSWNSGALTSGVHTFPAVLQSSGLYSLSSVVTVPSSNFGTQTYTCNVDHKPSNTKVDKTVERKCCVECPPCPAPPVAGPSVFLFPPKPKDTLMISRTPEVTCVVVDVSHEDPEVQFNWYVDGVEVHNAKTKPREEQFNSTFRVVSVLTVVHQDWLNGKEYKCKVSNKGLPAPIEKTISKTKGQPREPQVYTLPPSREEMTKNQVSLTCLVKGFYPSDIAVEWESNGQPENNYKTTPPMLDSDGSFFLYSKLTVDKSRWQQGNVFSCSVMHEALHNHYTQKSLSLSPGK", "light": "B6 light"}, "B8": {"name": "MT01-L2 (antibody, human IgG1, lambda)", "heavy": "not shown", "light": "QLVLTQSSSASFSLGASAKLTCTLSSQHSTYIIEWYQQQPLKPPKYVMELKKDGSHSTGEGIPDRFSGSSSGADRYLSISNIQPEDEAIYICGVGNTIKEQFVYVFGGGTKVTVLGQPKANPTVTLFPPSSEELQANKATLVCLISDFYPGAVTVAWKADGSPVKAGVETTKPSKQSNNKYAASSYLSLTPEQWKSHRSYSCQVTHEGSTVEKTVAPTECS", "notes": "also called human-mouse chimeric monoclonal antibody MT01-L2"}, "B9": {"name": "MT01-L2(G2) (antibody, human IgG2, lambda)", "heavy": "EVQLVESGGGLVQPKGSLSLSCAASGFTFNTYAMNWVRQAPGKGLEWVARIRSKSNNYATYYADSVKDRFTISRDDSQSMLYLQMTNLKTEDTAMYHCVRSLGRAFVYWGQGTLVTVSSASTKGPSVFPLAPCSRSTSESTAALGCLVKDYFPEPVTVSWNSGALTSGVHTFPAVLQSSGLYSLSSVVTVPSSNFGTQTYTCNVDHKPSNTKVDKTVERKCCVECPPCPAPPVAGPSVFLFPPKPKDTLMISRTPEVTCVVVDVSHEDPEVQFNWYVDGVEVHNAKTKPREEQFNSTFRVVSVLTVVHQDWLNGKEYKCKVSNKGLPAPIEKTISKTKGQPREPQVYTLPPSREEMTKNQVSLTCLVKGFYPSDIAVEWESNGQPENNYKTTPPMLDSDGSFFLYSKLTVDKSRWQQGNVFSCSVMHEALHNHYTQKSLSLSPGK", "light": "B8 light"}}, "key": {"human OX40 on cells [1]": {"target": "T1, human OX40 on cells (human, UniProt P43489 29-277)", "T1 sequence (looked up)": "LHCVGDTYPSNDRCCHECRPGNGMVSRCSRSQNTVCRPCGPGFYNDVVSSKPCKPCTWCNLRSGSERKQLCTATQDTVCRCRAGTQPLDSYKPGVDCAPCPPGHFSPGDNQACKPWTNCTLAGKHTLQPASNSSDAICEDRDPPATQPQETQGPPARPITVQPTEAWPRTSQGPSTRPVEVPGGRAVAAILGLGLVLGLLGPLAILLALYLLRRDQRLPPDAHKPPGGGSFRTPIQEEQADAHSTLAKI", "experiment": "cell-based or functional assay"}, "human OX40 protein [2]": {"target": "T2, human OX40 protein (human, UniProt P43489 29-214, limits assumed)", "T2 construct": "also called human OX antigen protein", "T2 sequence (looked up)": "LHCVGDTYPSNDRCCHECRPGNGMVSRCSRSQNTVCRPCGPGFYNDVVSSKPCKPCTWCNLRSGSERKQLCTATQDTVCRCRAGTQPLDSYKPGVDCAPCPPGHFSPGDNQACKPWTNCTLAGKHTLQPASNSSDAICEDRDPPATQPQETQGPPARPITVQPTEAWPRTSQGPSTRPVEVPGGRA", "experiment": "ELISA as in Example 3, human OX40 protein coated", "description": "(§1) The next day, it was washed three times with 300 μL PBST (Tween 20: 0.5‰), then blocked with 5% BSA/PBS at 100 μL/well for 2 hours, and shaken at room temperature. After washing 3 times with 300 μL PBST, the gradient dilutions of samples were prepared with PBS, which were added into the 96-well plate at 100 μL/well and shaken at room temperature for 1 hour, and washed 3 times with 300 μL PBST. The secondary antibody goat anti-human IgG HRP solution was prepared, which was added into the 96-well plate at 100 μL/well, and shaken at room temperature for 1 hour. After washing 4 times with 300 μL PBST, TMB was added at 100 μL/well and developed for 20 min. 0.6N H₂SO4 was added at 100 μL/well to stop the development, and OD450 nm was measured.\nThe in vitro binding assay of humanized antibodies and human OX antigen protein was carried out as described in Example 3."}, "mouse OX40 on CHO cells": {"target": "T3, mouse OX40 on CHO cells (mouse, UniProt P47741 20-272)", "T3 construct": "whole, on cells; also called CHO-mOX40", "T3 sequence (looked up)": "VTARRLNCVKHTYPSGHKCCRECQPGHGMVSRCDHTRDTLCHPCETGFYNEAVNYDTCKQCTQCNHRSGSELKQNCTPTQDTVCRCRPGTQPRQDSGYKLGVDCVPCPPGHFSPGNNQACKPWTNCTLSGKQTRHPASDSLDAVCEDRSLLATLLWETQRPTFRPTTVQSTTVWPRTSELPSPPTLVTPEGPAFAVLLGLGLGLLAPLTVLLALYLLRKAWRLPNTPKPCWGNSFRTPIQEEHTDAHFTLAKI", "experiment": "FACS on CHO cells expressing mouse OX40"}, "human OX40 protein [3]": {"target": "T2, human OX40 protein", "experiment": "ELISA, protein coated at 1 µg/mL, goat anti-human IgG HRP", "description": "as §1"}, "human OX40 on cells [4]": {"target": "T1, human OX40 on cells", "experiment": "FACS on CHO-hOX40 cells", "description": "The OX40 antibody gradient was created with PBS, and a stock solution of 10× final concentration was prepared. CHO-hOX40 cells were collected, washed once with PBS, counted, and diluted to a cell suspension of 2×10⁶ cells/ml. 10 μl of OX40 antibody stock solutions were added into 100 μl of cell suspension, and incubated at 4° C. in the dark for 30 min. After washing twice with PBS, a secondary antibody was added and an incubation was carried out at 4° C. for 30 min in the dark. After washing once with PBS, the cells were suspended in 400 μl FACS buffer and measured on the instrument."}}, "note": "Substitutions are numbered along the chain they refer to. “And” between values parts separate entries of the source, which are not always exact repeats. Identical values can stand only once."}
{"binder": "B1", "values": [{"measurement": "EC50 of activation on a cell line transfected stably by Jurkat-OX40-NFκB-luciferase reporter", "setting": "human OX40 on cells [1]", "value": 0.028, "unit": "µg/mL"}, {"measurement": "EC50", "setting": "human OX40 protein [2]", "value": 0.345, "unit": "µg/mL"}]}
{"binder": "B2", "values": [{"measurement": "EC50 of activation on a cell line transfected stably by Jurkat-OX40-NFκB-luciferase reporter", "setting": "human OX40 on cells [1]", "value": 0.0434, "unit": "µg/mL"}, {"measurement": "EC50", "setting": "human OX40 protein [2]", "value": 0.39, "unit": "µg/mL"}]}
{"binder": "B3", "values": [{"measurement": "EC50 for activation of the NFκB-luciferase reporter gene", "setting": "human OX40 on cells [1]", "value": 0.0645, "unit": "µg/mL"}]}
{"binder": "B4", "values": [{"measurement": "EC50 for activation of the NFκB-luciferase reporter gene", "setting": "human OX40 on cells [1]", "value": 0.128, "unit": "µg/mL"}]}
{"binder": "B5", "values": [{"measurement": "EC50 for activation of the NFκB-luciferase reporter gene", "setting": "human OX40 on cells [1]", "value": 0.06, "unit": "µg/mL"}]}
{"binder": "B6", "values": [{"measurement": "EC50 for activation of the NFκB-luciferase reporter gene", "setting": "human OX40 on cells [1]", "value": "0.0391 µg/mL and 0.0574 µg/mL"}, {"measurement": "IC50 of inhibition of the OX40L-induced activation of NFkB signaling pathway in Jurkat cells", "setting": "human OX40 on cells [1]", "value": 0.686, "unit": "µg/mL"}, {"measurement": "binding result", "setting": "mouse OX40 on CHO cells", "value": "no binding"}, {"measurement": "EC50", "setting": "human OX40 protein [3]", "value": 0.291, "unit": "µg/mL"}, {"measurement": "EC50", "setting": "human OX40 on cells [4]", "value": 1.22, "unit": "µg/mL"}]}
{"binder": "B7", "values": [{"measurement": "EC50 for activation of the NFκB-luciferase reporter gene", "setting": "human OX40 on cells [1]", "value": 0.0149, "unit": "µg/mL"}]}
{"binder": "B8", "values": [{"measurement": "EC50 for activation of the NFκB-luciferase reporter gene", "setting": "human OX40 on cells [1]", "value": 0.0841, "unit": "µg/mL"}, {"measurement": "IC50 of inhibition of the OX40L-induced activation of NFkB signaling pathway in Jurkat cells", "setting": "human OX40 on cells [1]", "value": 1.59, "unit": "µg/mL"}, {"measurement": "binding result", "setting": "mouse OX40 on CHO cells", "value": "no binding"}, {"measurement": "EC50", "setting": "human OX40 protein [3]", "value": 0.208, "unit": "µg/mL"}, {"measurement": "EC50", "setting": "human OX40 on cells [4]", "value": 2.42, "unit": "µg/mL"}]}
{"binder": "B9", "values": [{"measurement": "EC50 for activation of the NFκB-luciferase reporter gene", "setting": "human OX40 on cells [1]", "value": 0.118, "unit": "µg/mL"}]}
